From IntAct's records for PubMed 17496150

B1: "Peptide-N(4)-(N-acetyl-beta-glucosaminyl)asparagine amidase" (Mus musculus), Q9JI78 (parent)
chain: MASATLGSSSSSASPAVAELCQNTPETFLEASKLLLTYADNILRNPSDEKYRSIRIGNTAFSTRLLPVRGAVECLFEMGFEEGETHLIFPKKASVEQLQKIRDLIAIERSSRLDGSSKKVQFSQHPAAAKLPLEQSEDPAGLIRHSGNQTGQLPSLPSAPMVVGDSTILKVLQSNIQHVQLYENPVLQEKALTCIPVSELKRKAQEKLFRARKLDKGTNVSDEDFLLLELLHWFKEEFFRWVNNIVCSKCGGETRSRDEALLPNDDELKWGAKNVENHYCDACQLSNRFPRYNNPEKLLETRCGRCGEWANCFTLCCRALGFEARYVWDYTDHVWTEVYSPSQQRWLHCDACEDVCDKPLLYEIGWGKKLSYIIAFSKDEVVDVTWRYSCKHDEVMSRRTKVKEELLRETINGLNKQRQLSLSESRRKELLQRIIVELVEFISPKTPRPGELGGRVSGSLAWRVARGETGLERKEILFIPSENEKISKQFHLRYDIVRDRYIRVSDNNINISGWENGVWKMESIFRKVEKDWNMVYLARKEGSSFAYISWKFECGSAGLKVDTVSIRTSSQSFESGSVRWKLRSETAQVNLLGDKNLRSYNDFSGATEVTLEAELSRGDGDVAWQHTQLFRQSLNDSGENGLEIIITFNDL

Variants of: B1
Details: with tera_mouse Vcp

| effect of a mutation on the interaction | Variant |
| --- | --- |
| disrupting interaction strength | R55E |

Variants of: B1
Details: with tera_mouse Vcp
Remark: another data set of the same source

| effect of a mutation on the interaction | Variant |
| --- | --- |
| disrupting interaction strength | N58D |
